From publication PMC6205631, “Topological in vitro loading of the budding yeast cohesin ring onto DNA” (Life Science Alliance, 2018)

T1: Scc3 (budding yeast, UniProt P40541 1-1150)
T1 construct: Scc3, budding yeast cohesin subunit; genomic DNA encoding Scc3; also called HEAT repeat subunit Scc3; source: co-purified (IgG agarose, heparin, Superose 6)
T1 sequence (looked up): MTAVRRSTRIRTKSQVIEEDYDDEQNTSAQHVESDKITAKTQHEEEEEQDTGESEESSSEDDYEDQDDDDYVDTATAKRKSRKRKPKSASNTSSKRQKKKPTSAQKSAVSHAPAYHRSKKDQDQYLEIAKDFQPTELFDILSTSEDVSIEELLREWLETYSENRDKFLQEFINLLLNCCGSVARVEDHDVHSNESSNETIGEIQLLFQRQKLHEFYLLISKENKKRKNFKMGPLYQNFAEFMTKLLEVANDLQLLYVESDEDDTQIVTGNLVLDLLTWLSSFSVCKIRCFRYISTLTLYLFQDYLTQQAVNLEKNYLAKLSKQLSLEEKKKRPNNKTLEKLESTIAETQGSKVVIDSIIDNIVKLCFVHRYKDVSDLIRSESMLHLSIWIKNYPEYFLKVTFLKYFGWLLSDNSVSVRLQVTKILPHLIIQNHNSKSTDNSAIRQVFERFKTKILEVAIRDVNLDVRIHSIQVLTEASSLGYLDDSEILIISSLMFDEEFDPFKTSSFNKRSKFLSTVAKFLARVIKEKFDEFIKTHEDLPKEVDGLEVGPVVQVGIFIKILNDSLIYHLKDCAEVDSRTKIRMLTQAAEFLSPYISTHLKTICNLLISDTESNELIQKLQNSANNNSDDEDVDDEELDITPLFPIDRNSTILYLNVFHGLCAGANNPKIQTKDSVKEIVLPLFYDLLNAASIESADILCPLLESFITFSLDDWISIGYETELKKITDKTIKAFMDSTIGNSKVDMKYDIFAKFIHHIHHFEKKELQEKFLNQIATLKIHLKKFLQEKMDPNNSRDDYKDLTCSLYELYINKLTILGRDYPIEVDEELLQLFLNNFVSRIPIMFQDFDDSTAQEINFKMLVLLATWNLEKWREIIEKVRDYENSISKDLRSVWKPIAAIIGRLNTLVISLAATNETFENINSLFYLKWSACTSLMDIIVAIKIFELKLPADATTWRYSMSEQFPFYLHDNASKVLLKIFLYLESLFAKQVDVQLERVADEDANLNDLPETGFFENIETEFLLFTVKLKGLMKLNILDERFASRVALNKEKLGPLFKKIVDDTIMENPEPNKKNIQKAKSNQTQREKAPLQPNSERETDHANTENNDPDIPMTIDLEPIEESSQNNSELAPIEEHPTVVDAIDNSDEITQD

T2: Smc3 (budding yeast, UniProt P47037 1-1230)
T2 construct: Smc3, budding yeast cohesin subunit; Smc3-encoding genomic DNA; The expression strain is eco1 deleted; also called cohesin subunit Smc3; source: co-purified (IgG agarose, heparin, Superose 6)
T2 sequence (looked up): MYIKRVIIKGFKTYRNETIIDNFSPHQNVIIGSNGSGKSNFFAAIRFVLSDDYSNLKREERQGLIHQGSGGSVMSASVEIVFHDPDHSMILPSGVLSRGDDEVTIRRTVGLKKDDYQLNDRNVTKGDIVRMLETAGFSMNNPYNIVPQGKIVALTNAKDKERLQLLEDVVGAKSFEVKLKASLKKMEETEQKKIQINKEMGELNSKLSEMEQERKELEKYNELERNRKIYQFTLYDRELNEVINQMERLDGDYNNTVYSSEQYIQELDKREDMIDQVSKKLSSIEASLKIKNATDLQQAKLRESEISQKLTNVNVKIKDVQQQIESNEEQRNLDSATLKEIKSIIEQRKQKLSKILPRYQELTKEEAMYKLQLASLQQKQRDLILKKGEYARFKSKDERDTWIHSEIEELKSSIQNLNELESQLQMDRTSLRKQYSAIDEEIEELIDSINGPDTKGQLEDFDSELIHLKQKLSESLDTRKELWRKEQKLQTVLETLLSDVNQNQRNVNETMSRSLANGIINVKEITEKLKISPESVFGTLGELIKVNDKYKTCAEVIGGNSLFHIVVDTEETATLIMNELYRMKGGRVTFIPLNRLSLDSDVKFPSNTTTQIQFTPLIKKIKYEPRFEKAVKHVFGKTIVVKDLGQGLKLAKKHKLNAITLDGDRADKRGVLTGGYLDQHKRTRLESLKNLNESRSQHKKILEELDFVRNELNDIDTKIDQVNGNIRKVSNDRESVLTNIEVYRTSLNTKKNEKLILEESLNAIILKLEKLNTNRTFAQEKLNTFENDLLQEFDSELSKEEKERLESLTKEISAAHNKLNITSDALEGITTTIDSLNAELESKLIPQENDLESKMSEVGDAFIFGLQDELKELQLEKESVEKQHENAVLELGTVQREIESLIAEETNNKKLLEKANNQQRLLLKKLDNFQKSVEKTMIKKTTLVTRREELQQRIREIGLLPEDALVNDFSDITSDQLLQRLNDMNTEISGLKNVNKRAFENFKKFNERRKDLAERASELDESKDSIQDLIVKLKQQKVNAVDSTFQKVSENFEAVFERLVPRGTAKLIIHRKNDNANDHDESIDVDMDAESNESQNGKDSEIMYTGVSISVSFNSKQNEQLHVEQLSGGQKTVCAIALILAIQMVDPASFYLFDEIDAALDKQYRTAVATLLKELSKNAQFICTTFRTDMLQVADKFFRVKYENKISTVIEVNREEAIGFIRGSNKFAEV


What was measured:
Scc3 = target: T1, Scc3; experiment: SEC; purified cohesin tetramer, 150 nM in cohesin loading buffer (35 mM Tris-HCl pH 7.0, 20 mM NaCl, 0.5 mM MgCl2, 0.5 mM ATP), run directly or after 120 min at 29°C on Superose 6 Increase 10/300 GL in R buffer (150 mM NaCl); UV absorbance; details: both partners purified
Smc3 = target: T2, Smc3; experiment: as above; details: both partners purified

| binding result (Scc3) | binding result (Smc3) | Binder |
| --- | --- | --- |
| binds | – | Scc1 (natural protein, budding yeast, UniProt Q12158 1-566, looked up, Scc1, budding yeast cohesin kleisin subunit; genomic DNA encoding Scc1; also called kleisin subunit Scc1; source: co-purified (IgG agarose, heparin, Superose 6); not shown: two tandem protein A tags, C-terminal, kept) MVTENPQRLTVLRLATNKGPLAQIWLASNMSNIPRGSVIQTHIAESAKEIAKASGCDDESGDNEYITLRTSGELLQGIVRVYSKQATFLLTDIKDTLTKISMLFKTSQKMTSTVNRLNTVTRVHQLMLEDAVTEREVLVTPGLEFLDDTTIPVGLMAQENSMERKVQGAAPWDTSLEVGRRFSPDEDFEHNNLSSMNLDFDIEEGPITSKSWEEGTRQSSRNFDTHENYIQDDDFPLDDAGTIGWDLGITEKNDQNNDDDDNSVEQGRRLGESIMSEEPTDFGFDLDIEKEAPAGNIDTITDAMTESQPKQTGTRRNSKLLNTKSIQIDEETENSESIASSNTYKEERSNNLLTPQPTNFTTKRLWSEITESMSYLPDPILKNFLSYESLKKRKIHNGREGSIEEPELNVSLNLTDDVISNAGTNDNSFNELTDNMSDFVPIDAGLNEAPFPEENIIDAKTRNEQTTIQTEKVRPTPGEVASKAIVQMAKILRKELSEEKEVIFTDVLKSQANTEPENITKREASRGFFDILSLATEGCIGLSQTEAFGNIKIDAKPALFERFINA |
| – | binds | Smc1 (natural protein, budding yeast, UniProt P32908 1-1225, looked up, Smc1, budding yeast cohesin subunit; PCR amplified Smc1-encoding genomic DNA; also called cohesin subunit Smc1; source: co-purified (IgG agarose, heparin, Superose 6)) MGRLVGLELSNFKSYRGVTKVGFGESNFTSIIGPNGSGKSNMMDAISFVLGVRSNHLRSNILKDLIYRGVLNDENSDDYDNEGAASSNPQSAYVKAFYQKGNKLVELMRIISRNGDTSYKIDGKTVSYKDYSIFLENENILIKAKNFLVFQGDVEQIAAQSPVELSRMFEEVSGSIQYKKEYEELKEKIEKLSKSATESIKNRRRIHGELKTYKEGINKNEEYRKQLDKKNELQKFQALWQLYHLEQQKEELTDKLSALNSEISSLKGKINNEMKSLQRSKSSFVKESAVISKQKSKLDYIFKDKEKLVSDLRLIKVPQQAAGKRISHIEKRIESLQKDLQRQKTYVERFETQLKVVTRSKEAFEEEIKQSARNYDKFKLNENDLKTYNCLHEKYLTEGGSILEEKIAVLNNDKREIQEELERFNKRADISKRRITEELSITGEKLDTQLNDLRVSLNEKNALHTERLHELKKLQSDIESANNQEYDLNFKLRETLVKIDDLSANQRETMKERKLRENIAMLKRFFPGVKGLVHDLCHPKKEKYGLAVSTILGKNFDSVIVENLTVAQECIAFLKKQRAGTASFIPLDTIETELPTLSLPDSQDYILSINAIDYEPEYEKAMQYVCGDSIICNTLNIAKDLKWKKGIRGKLVTIEGALIHKAGLMTGGISGDANNRWDKEEYQSLMSLKDKLLIQIDELSNGQRSNSIRAREVENSVSLLNSDIANLRTQVTQQKRSLDENRLEIKYHNDLIEKEIQPKITELKKKLDDLENTKDNLVKEKEALQNNIFKEFTSKIGFTIKEYENHSGELMRQQSKELQQLQKQILTVENKLQFETDRLSTTQRRYEKAQKDLENAQVEMKSLEEQEYAIEMKIGSIESKLEEHKNHLDELQKKFVTKQSELNSSEDILEDMNSNLQVLKRERDGIKEDIEKFDLERVTALKNCKISNINIPISSETTIDDLPISSTDNEAITISNSIDINYKGLPKKYKENNTDSARKELEQKIHEVEEILNELQPNARALERYDEAEGRFEVINNETEQLKAEEKKILNQFLKIKKKRKELFEKTFDYVSDHLDAIYRELTKNPNSNVELAGGNASLTIEDEDEPFNAGIKYHATPPLKRFKDMEYLSGGEKTVAALALLFAINSYQPSPFFVLDEVDAALDITNVQRIAAYIRRHRNPDLQFIVISLKNTMFEKSDALVGVYRQQQENSSKIITLDLSNYAE |
